Measurements: publication PMC6900781

B1: HA-dCENP-C(1264-1411) [Drosophila melanogaster] / GFP-LacI-dCENP-C [Drosophila melanogaster] (parent)
chain 1: GPVVFSTPLRDEQEEASTKLMQWLRGVGDAPPSASMSDENASVSSANELIFCQVDGIDYAFYNTKEKAMLGYMRFKPYQKRSMKQAKVHPLKLLVQFGEFNVETLAVGEEKEVHSVLRVGDMIEIDRGTRYSIQNAIDKVSVLMCIRS
chain 2: MSKPQNNDTLELDDILSQPVKDKERFAAFMMRKLAENKPAQNDNLFGNFKLDFDLDFEVPLIKKSQAKPKSKLPEVQPLGELVSKNSAATEKVNEPPVDQAPNENVPPRRSPTLSPNNRRSMRRSGNVPGSDKLRRHAIRRRSRSCGRQLLPEFEETVNLTRSISSPVNFLPEISSTPCTEKQKEEVAKNTTRVETDKPAEKPMELSQEPEPENPLQTKVTSPARNPILAAEIEQICKERQSSFHKNVLQLDYSGRAPYSRPPTPSSPSVAGLRRTYTMEKGPAPGQLLLSPSHRYDTPSKMPVVKAKRFNQELMVPDTPERQSHDPAWQSEPQPEFVVPETQPQDLGELVQTLSRSAISPIVVINTSNSNRSVRRDAVAMKSVPTSPVTALSSPPIAPSPRRSAAASPQKSIAQLPRVEENMDAIMTDDESDEHPSTVPLNLAPSGGNTTRQRRLRSSNRARATIESQESSMRLLNLHKSVNAKKSKPRKTAIPLNKAPSAPINGEQFARELTRMSNYEILDLRKRNSLNEIYPLNGHRNHRSEKLILEEEIQRELLRRNLMDEAEGLPKQQSSDDSNEDYIPVPPKTQSLRTKSNDRSQGRGRPRSTRRDLPMTTELVNYLGLSQTLETRRKSSKDGKRCLYTKGSSDHEDNDSLSPVKLPRLSKSIQIVPPPPVSLRYSQSLQNLPCSGKFDFDNVVMAAPPDFHDSVNSDAIEIAPPPPEYVVNTRGRSTSGRKSNKNDLVLPPPGYEGGQEEEHDERPSQPRCTAKELQQSTQNGRRAMENELVPPPIEYVEEENRNNEQSRRSTKNGNLVDRNTHNAVEYCEPPEPPEYDDSDHGQASILRRSGKKLQHSKQSVQKSNKEQIIAPSYENNEDYDSDEEPIYNEEYGKEESQNKNVTRRKSDKDEMASHTLECIEGPDPNWNSSCNKQNRNHQNASKSKENDKLANRSSKSQKLSNPRQNAVGTEKSVALSNRGEECTEKSSDVMESLRVNTPTPPIDQNSDDVPSRNPSPSRTLLSDDVPSTSRAALEFLQRSQNMSKSRPPDESSADVVFKKPLAPAPRAKSKKGKSEVDKLKLAKMPVEAEELNTTGIRRSKRGQVPLQMSWCHTMDPSKFNFMSGFIEPRSKNSKTKKGNLSKAKKASATKPKPTVEKNLPDNRGPLCSSTPRISEKLPGAIPHSESLGLSTLTWEETEVQAEAEKVPKKRGRPKKAVGGVQTDTEAEPEPEPEPMISSVAPLTSDQEEPDVPDEQAPYTEAALGPVVFSTPLRDEQEEASTKLMQWLRGVGDAPPSASMSDENASVSSANELIFCQVDGIDYAFYNTKEKAMLGYMRFKPYQKRSMKQAKVHPLKLLVQFGEFNVETLAVGEEKEVHSVLRVGDMIEIDRGTRYSIQNAIDKVSVLMCIRS
B2: HA-dCENP-C(1264-1411) [Drosophila melanogaster] / CAL1-GFP-LacI [Drosophila melanogaster] (parent)
chain 1: B1 chain 1
chain 2: MANAVVDEETLEAMVYERSKAWSSKMADFASLEDGMEIDVAEFDNLFHGEDEDPDLDDVAKEAVEDNVPDEAKLEMGHINATSVTELTLILCANEDNEAKAEIEEILNQTVPVVEEHKRKWREAGLDRILDTFDEKQIEHHVGRWMRRHNSVYLEASPPKYLPPHHNSISDESDESMHSIDTARYIQQSRRRNAHMTNKNMTTIKMYRKHSHKRDELRAKYAYGDEQEHRHHMQAVLLRRRERERQLAYLASTPMQCVYSSGHHMRRKNLRKRRINSWMFDSASSSEEDTSFGGCDCHSCRRHYALSRSVYQSCPYGRGQREYHHRQMASRTMHTMRRQHTFDMEMDLRPRLPENECSCCNSDRLCSNVIHIANSSTEEWVVENRSNHLTQETQEKTRKQKHQPMDARKVSHQPVCSKGHEQKPLSSKATSVSKLVLSKEKYMQMFDSESSDEDNALAKKGLLCCSDKKKGMTFPTPNAAGKITHPTSSAKKAIRKEARPNGLAQIQEEGPTATNSPIESTYLPVAHMKSVSIDGSSGTSATFESPAKKAPKRGIRETSPLNGNELQQLISTIPIADEKASSLMEKVDNCIGRESFDDRNKDFMHMENSSTKTAVEKSTKQKRVSGKKSEIPKSIITNNEILEKNSTETLSEKQVAAKAKKQSVRKTGATGKPSTSRLKKSEKTKTTSSVTSTSKLEQVREEESDVSSEVLAKPKPQCSTTASILKQGGDGASNSEDDLQIALAMSKATYKEEQQKRKKTKREPSNKQPQSPAEKSMTVFNNQSVACNSTALANDTACYRVLPKRRGVKRAAAVSTTEEKTATNSSSSPTSSLEEMGSPTGGDPDCTVVTSTTGCEPPASERQEIPATIKITKRGILLHSPSAPEGASFTLTEQGLGKIIGERWARKYLKYHIGSRSFDSRHSVYYQPTPQLAAALSAPQDAQNIGNISGSSASDDDIFEQINRYGTVYSILENNSGDK

Variants of: B1
Experiment: LacO-tethering recruitment assay (HA immunofluorescence intensity at LacO)
Settings: with GFP-LacI-dCENP-C [Drosophila melanogaster]; parent: 1.6; read off a plot

Variant | response (normalized to GFP)
chain 1 GPVVFSTPLRDEQEEASTKLMQWLRGVGDAPPSASMSDENASVSSANELIFCQVDGIDYAFYNTKEKAMLGYMRFKPYQKRSMKQAKVHPLKLEVQFGEFNVETLAVGEEKEVHSVLRVGDMIEIDRGTRYSIQNAIDKVSVEMCIRS [chain 1 L94E L143E] | -0.05

Variants of: B2
Experiment: as above
Settings: with CAL1-GFP-LacI [Drosophila melanogaster]; parent: 0.68; read off a plot

Variant | response (normalized to GFP)
chain 1 GPVVFSTPLRDEQEEASTKLMQWLRGVGDAPPSASMSDENASVSSANELIFCQVDGIDYAFYNTKEKAMLGYMRFKPYQKRSMKQAKVHPLKLEVQFGEFNVETLAVGEEKEVHSVLRVGDMIEIDRGTRYSIQNAIDKVSVEMCIRS [chain 1 L94E L143E] | 0.12
